B1: E-selectin on CHO cells expressing E-selectin (CHO-E) (receptor)
chain: WSYNTSTEAMTYDEASAYCQQRYTHLVAIQNKEEIEYLNSILSYSPSYYWIGIRKVNNVWVWVGTQKPLTEEAKNWAPGEPNNRQKDEDCVEIYIKREKDVGMWNDERCSKKKLALCYTAACTNTSCSGHGECVETINNYTCKCDPGFSGLKCEQIVNCTALESPEHGSLVCSHPLGNFSYNSSCSISCDRGYLPSSMETMQCMSSGEWSAPIPACNVVECDAVTNPANGFVECFQNPGSFPWNTTCTFDCEEGFELMGAQSLQCTSSGNWDNEKPTCKAVTCRAVRQPQNGSVRCSHSPAGEFTFKSSCNFTCEEGFMLQGPAQVECTTQGQWTQQIPVCEAFQCTALSNPERGYMNCLPSASGSFRYGSSCEFSCEQGFVLKGSKRLQCGPTGEWDNEKPTCEAVRCDAVHQPPKGLVRCAHSPIGEFTYKSSCAFSCEEGFELHGSTQLECTSQGQWTEEVPSCQVVKCSSLAVPGKINMSCSGEPVFGTVCKFACPEGWTLNGSAARTCGATGHWSGLLPTCEAPTESNIPLVAGLSAAGLSLLTLAPFLLWLRKCLRKAKKFVPASSCQSLESDGSYQKPSYIL
B2: recombinant mouse E-selectin/CD62E Fc chimera (E-Ig) (Fc fusion, UniProt Q00690 22-557, looked up)
chain: WYYNASSELMTYDEASAYCQRDYTHLVAIQNKEEINYLNSNLKHSPSYYWIGIRKVNNVWIWVGTGKPLTEEAQNWAPGEPNNKQRNEDCVEIYIQRTKDSGMWNDERCNKKKLALCYTASCTNASCSGHGECIETINSYTCKCHPGFLGPNCEQAVTCKPQEHPDYGSLNCSHPFGPFSYNSSCSFGCKRGYLPSSMETTVRCTSSGEWSAPAPACHVVECEALTHPAHGIRKCSSNPGSYPWNTTCTFDCVEGYRRVGAQNLQCTSSGIWDNETPSCKAVTCDAIPQPQNGFVSCSHSTAGELAFKSSCNFTCEQSFTLQGPAQVECSAQGQWTPQIPVCKAVQCEALSAPQQGNMKCLPSASGPFQNGSSCEFSCEEGFELKGSRRLQCGPRGEWDSKKPTCSAVKCDDVPRPQNGVMECAHATTGEFTYKSSCAFQCNEGFSLHGSAQLECTSQGKWTQEVPSCQVVQCPSLDVPGKMNMSCSGTAVFGTVCEFTCPDDWTLNGSAVLTCGATGRWSGMPPTCEAPVSPTRP
notes: E-selectin (CD62E), mouse; Mouse is named only in the flow cytometry methods; also called E-selectin-hIg chimera; recombinant E-selectin–Ig chimera; source: bought: R&D
B3: P-selectin glycoprotein ligand-1 (PSGL-1) from activated human T-cells (natural protein, human (endogenous in activated T-cells), UniProt Q14242 42-412, looked up)
chain: QATEYEYLDYDFLPETEPPEMLRNSTDTTPLTGPGTPESTTVEPAARRSTGLDAGGAVTELTTELANMGNLSTDSAAMEIQTTQPAATEAQTTQPVPTEAQTTPLAATEAQTTRLTATEAQTTPLAATEAQTTPPAATEAQTTQPTGLEAQTTAPAAMEAQTTAPAAMEAQTTPPAAMEAQTTQTTAMEAQTTAPEATEAQTTQPTATEAQTTPLAAMEALSTEPSATEALSMEPTTKRGLFIPFSVSSVTHKGIPMAASNLSVNYPVGAPDHISVKQCLLAILILALVATIFFVCTVVLAVRLSRKGHMYPVRNYSPTEMVCISSLLPDGGEGPSATANGGLSKAKSPGLTPEPREDREGDDLTLHSFLP
modifications: O-glycans
notes: P-selectin glycoprotein ligand-1 (CD162), human; also called CD162

Experiments:
[1] = target: CD44/HCELL from activated human T-cells (human (endogenous in activated T-cells))
[2] = target: CD44/HCELL from activated human T-cells (human (endogenous in activated T-cells)); assay: SPR; BIAcore CM5 chip; CD44 and PSGL-1 captured from activated T-cell lysate by immobilised mAbs; 10 E-Ig concentrations (0.456-466.7 nM) injected at 30 ul/min in 150 mM NaCl running buffer; KD from steady-state fit; apparent koff from the buffer wash after the last injection; apparent kon calculated (Eq. 1 in Supplementary Material); isotype control subtracted
[3] = target: B3; assay: as above; settings: both partners purified
[4] = target: B2; assay: as above; settings: both partners purified

Binder: B1
average velocity of CHO-E cells rolling over the immuno-purified ligand on a blot (blot rolling assay, 0.5 dyn cm^-2, 2 mM Ca2+) [1]: 3.3

Binder: B2
Kd [2]: 777 nM | koff [2]: 4.9e-05 s⁻¹ | kon [2]: 61 M⁻¹ s⁻¹ | stoichiometry N [3]: ≥ 2 E-selectin dimers per PSGL-1 dimer

Binder: B3
Kd [4]: 467 nM | koff [4]: 2.5e-05 s⁻¹ | kon [4]: 52 M⁻¹ s⁻¹

From paper PMC5413510, “An Analysis of Trafficking Receptors Shows that CD44 and P-Selectin Glycoprotein Ligand-1 Collectively Control the Migration of Activated Human T-Cells” (Frontiers in Immunology, 2017)
